This is an account of results in patent US20250145690A1 (US Dept. of Health and Human Services, published 2025).

The target of experiment [1] is SARS-CoV-2 spike receptor binding domain (RBD), recombinant (SARS-CoV-2, UniProt P0DTC2 319-541). Put plainly: bead flow cytometry, AUC minus CD4.
Experiment [2] addresses SARS-CoV-2 spike N-terminal domain (NTD), recombinant (SARS-CoV-2, UniProt P0DTC2 14-305). Put plainly: bead flow cytometry, AUC minus CD4. (In flow cytometry, cells or beads pass a laser one at a time.)

B1: COV78-36 (antibody, V domains shown)
VH: EVQLVQSGAEVKKPGESLRISCKGSGYSFSNSWITWVRQMPGKGLEWVGRIDTRDSRTAYSPSFEGHVFFSADRSSDTVYVQWRSLRASDTAVYYCTTGAGVVIAASYFWGQGTLVTVSS
VL: QSALTQPPSASGSPGQPVTISCTGTSSDVGGYEYVSWYQQLPGKVPTLIIHEVSKRPSGVPDRFSGSKSGNTASLTVSGLQAEDEADYYCSSYSADSSIIFGGGTKLTVL
As for B1, the binding result in experiment [1] and in experiment [2] was “no binding (tested: 200 µg/mL)” in each case.

B2: COV44-62 (antibody, V domains shown)
VH: QMQLMQSGAEVKKPGASVTVSCKASGDTFSDYRIHWVRQAPGQGLEWMGRMNPKSGDTNFAQKFQGRVTMTRDMSINTAYMTLSGLTFDDTALYYCASLLIVGGFDPLDDFEVWGQGTMVTISS
VL: QSALTQPPSASGSPGQSVTISCSGTSSDVGGYNFVSWYQHHPGKAPKILIYEVTKRPSGVPDRFSGSKSGNTASLTVSGLQAEDEADYYCSSYGGTNNLLFGGGTKLTVL
For the molecule B2, the binding result in experiment [2] is listed as “no binding (tested: 200 µg/mL)”.

B3: COV44-79 (antibody, V domains shown)
VH: QVQLVESGGGVVQPGRSLRLSCAASGLTFSGYAMHWVRQAPGKGLEWVAVISRDARNKYYADSVKGRFTISRDNSKKTVYLEMNSLRVEDTAVYYCAILIIPGITEPGSPDALDIWGQGTMVSVSS
VL: DIQMTQSPSSMSASVGDRVTITCRASQDISKWLAWYQQRPGKAPKLLIYAASSLQSGVPSRFSGSGSGTDFTLTISSLQPEDFATYYCQQASSFPWSITFGQGTRLEIR
With B3, in experiment [2], the binding result is “no binding (tested: 200 µg/mL)”.

B4: COV44-25 (antibody, V domains shown)
VH: QVQLVDSGGGAVQPGTSLRLSCAASGFTFNTYAFHWVRQAPGKGLEWVAVISDDGNNKYYADSVKGRFTISRDDSKNTLSLQMDSLRVEDAAVYFCARGSYNSNWSLGEYFDYWGQGSLVTVSS
VL: DIVMTQSPDSLPVSLGERATINCKSSQSVLHSSNNKNYLAWYQQKPGQSPKLLISWASTRESGVPDRFSGSGSGTHFTLTISSLRAEDVAVYYCLQYFNNQYTFGQGTKLEIK
On to B4, for which the binding result in experiment [1] and in experiment [2] was “no binding (tested: 200 µg/mL)” throughout.

B5: COV77-04 (antibody, V domains shown)
VH: QVRLQESGPGLVKPSETLSVTCTVSGVSISNYYWSWIRQPPGKGLEWIGYISDTGSTNYSPSLQSRVTISVDMSKNQVSLEVTSVTATDTAVYYCARTTTSVPFDYWGKGVLVTVSS
VL: SYELTQPPSVSVSPGQVARITCSGEALPKKYAYWYQHKPGQFPLLVIHKDSERPSGIPERFSGSSSGTVVTLTISGVQAEDEADYFCLSTDGSTTWVFGGGTKLTVL
With B5, the binding result in experiment [1] and in experiment [2] was “no binding (tested: 200 µg/mL)” throughout.

B6: COV30-80 (antibody, V domains shown)
VH: QVQLVESGGGVVQPGRSLRLSCAASGFTFSSYAMHWVRQAPGKGLEWVAVISYDGNNAFYADSVKGRFTISRDNSKNTVYVQMDSLRAEETAVYYCARAGYNSNWDLGDALDIWGQGTMVTVSS
VL: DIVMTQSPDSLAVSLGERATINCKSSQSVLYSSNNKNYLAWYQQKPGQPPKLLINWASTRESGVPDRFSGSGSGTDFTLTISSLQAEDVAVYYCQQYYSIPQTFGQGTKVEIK
As to B6, the binding result in experiment [1] and in experiment [2] was “no binding (tested: 200 µg/mL)” in each case.

B7: COV91-27 (antibody, V domains shown)
VH: QVQLVESGGGVVHPGGSLRLSCAASGFTFSDFAMNWVRQAPGEGLQWVAIISYDGRNKHFAASVRGRFTISRDNSKNTMFLQMSSLRAEDTAIYYCATLGGWFEEASPTYWGRGTLVTVSS
VL: EVVLTQSPAIVSLSPGERATLSCRASQSVGSRLAWHQQKPGLAPRVLIYDASNRATGIPARFSGSGSGTDFTLTISSIEPEDSAVYYCQQRGDWPLITFGQGTRLEIK
As for B7, the binding result in experiment [2] was “no binding (tested: 200 µg/mL)”.

B8: COV57-03 (antibody, V domains shown)
VH: QVHLVESGGGVVQPGRSLRLSCAASGFTFSSFGMHWVRQAPGKGLEWVAVISDDGNNKFYADSVKGRFSISRDNSKNTLYLQMNSLRAEDTAVYYCVRAFRNSNWATGEYFDYWGQGTLVTVSS
VL: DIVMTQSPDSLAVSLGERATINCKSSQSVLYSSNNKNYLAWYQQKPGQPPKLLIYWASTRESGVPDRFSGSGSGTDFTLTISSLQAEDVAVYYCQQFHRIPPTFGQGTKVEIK
B8: the binding result in experiment [1] and in experiment [2] was “no binding (tested: 200 µg/mL)” each time.

B9: COV57-04 (antibody, V domains shown)
VH: QVQLVESGGGVVQPGRSLRLSCAASGFTFSNFGMHWVRQAPGKGLEWVAVISDDGNNEFYAGSVKGRFSISRDNSKNTLYLQMNSLRPEDTAVYYCVRAFRNSNWATGEYFDYWGQGTLVTVSS
VL: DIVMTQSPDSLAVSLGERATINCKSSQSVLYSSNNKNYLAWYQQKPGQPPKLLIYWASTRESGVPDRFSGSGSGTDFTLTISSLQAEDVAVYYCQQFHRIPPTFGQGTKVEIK
With B9, the binding result in experiment [1] and in experiment [2] was “no binding (tested: 200 µg/mL)” each time.

B10: COV77-39 (antibody, V domains shown)
VH: RVQLQESGPGLVKPSETLSLTCTVSGGSITDDYWNWIRQPPGKGLEWIGYVHDSGTTNYNPSLKSRVTLSLHTSGNKFSLRLTSVTAADTAMYYCARTTTTFPFDSWGQGTLVIVSS
VL: SYELTQPPSVSVSLGQMARITCSGEALPKKYVYWYQQKPGQFPVLVIYKDRERPSGIPERFSGSSSGTIVTLTISGVQAEDEADYYCLSVDSTANWVFGGGTKLTVL
For the molecule B10, the binding result in experiment [1] and in experiment [2] was “no binding (tested: 200 µg/mL)” each time.
